From patent US20220363754A1 (SHANGHAI JUNSHI BIOSCIENCES, published 2022)

What was measured:
[1] = target: T1, human TIGIT on Jurkat reporter cells (Jurkat/NFAT-Luc/hPD-1-hTIGIT) (human, UniProt Q495A1 22-244); test: cell-based or functional assay
T1 sequence (looked up): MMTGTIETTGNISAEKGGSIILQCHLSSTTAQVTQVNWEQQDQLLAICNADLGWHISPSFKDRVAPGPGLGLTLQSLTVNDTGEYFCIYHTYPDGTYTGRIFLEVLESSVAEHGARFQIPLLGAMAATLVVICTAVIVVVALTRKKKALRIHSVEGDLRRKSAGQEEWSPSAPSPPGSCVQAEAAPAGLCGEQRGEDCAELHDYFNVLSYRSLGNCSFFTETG

[2] = target: T1, human TIGIT on Jurkat reporter cells …; test: cell-based or functional assay; remark: listed apart in the source
[3] = target: T2, recombinant protein hTIGIT-ECD-mFC (human; mouse, UniProt Q495A1 24-155); test: ELISA, human TIGIT-ECD-mFc coated at 1 ug/mL, anti-IgG4-HRP
T2 construct: range 24-155; Expressed in 293E cells; also called human TIGIT-ECD-mFc; not shown: murine IgG2a Fc domain of the vector MX2-mFc
T2 sequence (looked up): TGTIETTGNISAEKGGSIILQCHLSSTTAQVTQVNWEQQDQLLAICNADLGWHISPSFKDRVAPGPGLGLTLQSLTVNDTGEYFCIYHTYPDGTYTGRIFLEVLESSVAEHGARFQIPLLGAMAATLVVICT
Protocol: (§1) The solution in wells was then discarded, and the wells were washed 3 times with a washing buffer and blocked for 60 minutes with PBS containing 2% BSA. After the plate was washed 3 times with the washing buffer, chimeric antibody dilutions at different concentrations were added. The antibodies were incubated at 37° C. for 60 minutes, and then the plate was washed 3 times with the washing buffer and added with 5000-fold diluted anti-IgG4-HRP. The system was incubated at 37° C. for 30 minutes, and then washed three times with the washing buffer and added with 100 μL of TMB substrate for color development. The system was incubated at room temperature for 30 minutes, and the reaction was then terminated with 100 μL of 2 M hydrochloric acid solution. The absorbance at 450 nm was measured by a plate reader.

hTIGIT-Fc = target: T3, hTIGIT-Fc (human, UniProt Q495A1 24-155); test: SPR (Biacore T200), antibody captured by anti-human Fc, antigen in solution, 1:1 model
T3 construct: range 24-155; also called human TIGIT; not shown: Fc part of the Biacore antigen is not described (possibly the murine IgG2a Fc of hTIGIT-ECD-mFC)
T3 sequence (looked up): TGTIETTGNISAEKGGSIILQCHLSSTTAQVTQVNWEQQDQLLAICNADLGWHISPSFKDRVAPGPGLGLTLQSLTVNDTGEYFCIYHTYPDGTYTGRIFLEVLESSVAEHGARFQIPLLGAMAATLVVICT
Protocol: (§2) An S series CM5 chip (GE) was first loaded onto the instrument, and 40 μg/mL of goat anti-human Fc fragment antibody (Jackson ImmuneResearch) dissolved in sodium acetate-acetic acid buffer (pH 5.0) was ready to be coupled to the chip surface. The buffer used for the detection of antibody-antigen binding was HBS-EP+ from GE Healthcare. The antibodies hu3 and hu20 were each diluted to 8 μg/mL and captured on the chip surface. […] The resulting data were analyzed with a 1:1 binding model by using Biacore T200 Evaluation Software 3.0.

Cyno TIGIT-Fc = target: T4, Cyno TIGIT-Fc (cynomolgus monkey, UniProt A0A7N9I9V4 89-209); test: as above
T4 construct: extracellular domain; the whole named entry is XP 015300912.1; also called cynomolgus monkey TIGIT; cynoTIGIT-ECD; not shown: Fc part is not described
Protocol: as §2

[4] = target: T2, recombinant protein hTIGIT-ECD-mFC; test: ELISA, human TIGIT-ECD-mFc coated at 0.5 ug/mL, anti-IgG4-HRP
Protocol: as §1, with “humanized” for “chimeric”

[5] = target: T5, hTIGIT (FACS blocking assay of Example 10) (human, UniProt Q495A1 22-141, limits assumed); test: competitive FACS, antibody titrated from 30 ug/mL in 3-fold steps, blocking of the binding of hTIGIT to its ligand hPVR on the cell surface, MFI; unit taken from the axis Log[concentration] ng/mL
T5 construct: The protocol names only PVR-mFC and 293F-hPVR cells; which of them should be TIGIT cannot be told
T5 sequence (looked up): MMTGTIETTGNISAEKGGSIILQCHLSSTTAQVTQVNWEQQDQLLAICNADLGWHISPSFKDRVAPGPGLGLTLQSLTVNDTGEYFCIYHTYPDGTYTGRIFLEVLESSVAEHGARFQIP
Protocol: Briefly, antibody dilutions at different concentrations (an initial concentration of 30 μg/mL, 3-fold titration) were each mixed with PVR-mFC (1 ug/mL, 50 μL) and incubated for 30 minutes at room temperature. The mixture was then incubated with cell suspension (stable 293F-hPVR cell line, 2.5×10⁴ cells/well) for 15 minutes at 37° C. After 3 times of elution with PBS, 100 μL of goat anti-human IgG-PE antibody was added, and the system was incubated for 30 minutes in the dark. After 3 times of elution with PBS, detection was performed by FACS. Viable cells were gated on the basis of FSC/SSC, and their geometric mean fluorescence intensity was measured.

T4 sequence (A0A7N9I9V4 entry or part of it): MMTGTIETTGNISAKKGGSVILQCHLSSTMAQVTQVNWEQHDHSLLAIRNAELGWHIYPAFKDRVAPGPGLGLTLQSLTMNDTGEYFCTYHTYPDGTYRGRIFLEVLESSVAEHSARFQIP

B1: hybridoma antibody 2O18 (antibody, V domains shown)
VH: EVQLQQSGPELVKPGASVKISCKTSGYAFTEYTMHWVKQSHGKSLEWIGGINPNTGGTTYNQKFKGKATLTVDKSSSTAYMEFRSLTSEDSAVYYCAKLLRLMYYFDYWGQGTTLTVSS
VL: DIVMTQSHKFMSTSVGDRVSITCKASQDVRTAVAWYQQKPGQSPKLLIYSASYRYTGVPDRFTGSGSGTDFTFTISSVQAEDLALYYCHQHYITPWTFGGGTKLEIK
[1]
  RLU fold change, NFAT-luciferase reporter (Jurkat hPD-1/hTIGIT + CHO hPD-L1/hPVRL2), with JS001: 3.3 fold
  RLU fold change, NFAT-luciferase reporter, antibody alone: 6.3 fold

B2: chimeric antibody ch1 (antibody, human IgG4, V domains shown)
VH: EVQLQQSGPELVKPGASVKISCKTSGYAFTEYTMHWVKQSHGKSLEWIGGINPNTGGTTYNQKFKGKATLTVDKSSSTAYMEFRSLTSEDSAVYYCAKLLRLMYYFDYWGQGTTLTVSS
VL: DIVMTQSHKFMSTSVGDRVSITCKASQDVRTAVAWYQQKPGQSPKLLIYSASYRYTGVPDRFTGSGSGTDFTFTISSVQAEDLALYYCHQHYITPWTFGGGTKLEIK
notes: IgG4 chimeric antibody; also called 2O18-ch-HC / 2O18-ch-LC
[2]
  EC50, luciferase reporter gene experiment (T cell activation): 0.0766 mg/L
[3]
  EC50: 0.0325 mg/L

B3: chimeric antibody ch4 (antibody, human IgG4, V domains shown)
VH: QVQLQQSGDELVRPGTSVKVSCQAAGYTFTNYWILWIKQRPRHGLEWIGDIYPGGHYTNYNEKFKGKATLTADTSSSTAYMQLNSLTSEDSAIYYCTRYYGPYAMDYWGQGTSVTVSS
VL: DIVMSQSPSSLPVSVGEKVTMSCKSSQSLLYNSNQKNYLAWYQQIPGQSPKLLIYWASTGESGVPDRFTGSGSGTDFTLTISSVKAEDLAVYYCQQYYSYPFTFGSGTKLEIK
notes: IgG4 chimeric antibody; also called 23O20-ch-HC / 23O20-ch-LC
[2]
  EC50, luciferase reporter gene experiment (T cell activation): 0.104 mg/L
[3]
  EC50: 0.00893 mg/L

B4: humanized antibody hu3 (antibody, human IgG4 S228P, kappa, V domains shown)
VH: QVQLVQSGAEVKKPGASVKVSCKTSGYAFTEYTMHWVRQAPGQGLEWMGGINPNTGGTTYNQKFQGRVTLTVDKSSSTAYMELSRLRSDDTVVYYCAKLLRLMYYFDYWGQGTLVTVSS
VL: DIVMTQSPDSLAVSLGERATINCKASQDVRTAVAWYQQKPGQPPKLLIYSASYRYTGVPDRFSGSGSGTDFTLTISSLQAEDVAVYYCHQHYITPWTFGGGTKVEIKR
notes: Humanized from 2O18
hTIGIT-Fc
  Kd: 0.13 nM
  koff: 0.000121 s⁻¹
  kon: 935000 M⁻¹ s⁻¹
Cyno TIGIT-Fc
  Kd: 1.42 nM
  koff: 0.0003 s⁻¹
  kon: 211000 M⁻¹ s⁻¹
[4]
  EC50: 0.0232 mg/L
[2]
  EC50, luciferase reporter gene experiment (T cell activation): 0.14 mg/L
[5]
  IC50: 0.0693 mg/L

B5: humanized antibody hu20 (antibody, human IgG4 S228P, kappa, V domains shown)
VH: QVQLVQSGAEVKKPGASVKVSCKTSGYAFTEYTMHWVRQAPGKGLEWMGGINPNTGGTTYNQKFQGRVTLTVDKSSSTAYMELSSLRSEDTVVYYCAKLLRLMYYFDYWGQGTLVTVSS
VL: DIQMTQSPSSLSASVGDRVTITCQASQDVRTAVAWYQQKPGKAPKLLIYSASYRYTGVPSRFSGSGSGTDFTFTISSLQPEDIATYYCHQHYITPWTFGGGTKVEIKR
notes: Humanized from 2O18
hTIGIT-Fc
  Kd: 0.209 nM
  koff: 0.000163 s⁻¹
  kon: 777000 M⁻¹ s⁻¹
Cyno TIGIT-Fc
  Kd: 1.45 nM
  koff: 0.000329 s⁻¹
  kon: 226000 M⁻¹ s⁻¹
[4]
  EC50: 0.0378 mg/L
[2]
  EC50, luciferase reporter gene experiment (T cell activation): 0.0424 mg/L
[5]
  IC50: 0.0587 mg/L

B6: humanized antibody hu62 (antibody, V domains shown)
VH: QVQLVQSGAEVKKPGASVKVSCKASGYTFTNYWILWIRQAPGQGLEWMGDIYPGGHYTNYNEKFQGRVTLTADTSSSTAYMELSSLRSEDTAVYYCTRYYGPYAMDYWGQGTLVTVSS
VL: DIQMTQSPSSLSASVGDRVTITCRSSQSLLYNSNQKNYLAWYQQKPGKAPKLLIYWASTGESGVPSRFSGSGSGTDFTLTISSLQPEDFATYYCQQYYSYPFTFGQGTKVEIK
notes: Humanized from 23O20; detected with anti-IgG4-HRP in the ELISA, constant regions not otherwise stated
[4]
  EC50: 0.0086 mg/L
[2]
  EC50, luciferase reporter gene experiment (T cell activation): 0.109 mg/L

B7: humanized antibody hu69 (antibody, V domains shown)
VH: QVQLVQSGAEVKKPGASVKVSCKASGYTFTNYWILWIRQAPGQGLEWMGDIYPGGHYTNYNEKFQGRVTLTADTSSSTAYMELSRLRSDDTAVYYCTRYYGPYAMDYWGQGTLVTVSS
VL: DIVMTQSPLSLPVTPGEPASISCRSSQSLLYNSNQKNYLAWYLQKPGQSPQLLIYWASTGESGVPDRFSGSGSGTDFTLKISRVEAEDVGVYYCQQYYSYPFTFGQGTKLEIK
notes: as for B6
[4]
  EC50: 0.0107 mg/L
[2]
  EC50, luciferase reporter gene experiment (T cell activation): 0.103 mg/L

B8: humanized antibody hu81 (antibody, V domains shown)
VH: QVQLVQSGAEVKKPGASVKVSCKASGYTFTNYWILWIRQAPGQGLEWMGDIYPGGHYTNYNEKLQGRVTLTADTSSSTAYMELRSLRSDDTAVYYCTRYYGPYAMDYWGQGTLVTVSS
VL: DIVMTQSPLSLPVTPGEPASISCRSSQSLLYNSNQKNYLAWYLQKPGQSPQLLIYWASTGESGVPDRFSGSGSGTDFTLKISRVEAEDVGVYYCQQYYSYPFTFGQGTKVEIK
notes: as for B6
[4]
  EC50: 0.00983 mg/L
[2]
  EC50, luciferase reporter gene experiment (T cell activation): 0.0884 mg/L

B9: hybridoma antibody 23O20 (antibody, V domains shown)
VH: QVQLQQSGDELVRPGTSVKVSCQAAGYTFTNYWILWIKQRPRHGLEWIGDIYPGGHYTNYNEKFKGKATLTADTSSSTAYMQLNSLTSEDSAIYYCTRYYGPYAMDYWGQGTSVTVSS
VL: DIVMSQSPSSLPVSVGEKVTMSCKSSQSLLYNSNQKNYLAWYQQIPGQSPKLLIYWASTGESGVPDRFTGSGSGTDFTLTISSVKAEDLAVYYCQQYYSYPFTFGSGTKLEIK
[1]
  RLU fold change, NFAT-luciferase reporter, antibody alone: 2.3 fold
  RLU fold change, NFAT-luciferase reporter, with JS001: 2.3 fold
